How the values were obtained:
[1] = molecular target: T1, Epstein-Barr virus latent membrane protein 1 (LMP1) (Epstein-Barr virus, UniProt P03230); assay: LMP1 expression in HEK293 cells co-transfected with P2 peptide (specificity control); format: cell-based; details: HEK293 co-transfected with LMP1 expression plasmid and P2 peptide with PULSin
T1 construct: expressed in transfected cells; host or cells: HEK293
Text: FIGS. 6A-6B: FIG. 6A. HEK293 cells were transfected with EBV LMP1 expression plasmid or vector control (pcDNA3). One day later, the cells were infected with or without ZIKV overnight as in FIG. 2a. Western blots were used for detection of LMP1 and tubulin simultaneously. The images in the same box indicate they were derived from the same gels. The identity of the proteins is as shown. FIG. 6B. HEK293 cells were co-transfected with different amounts of LMP1 expression plasmid and P2 peptide, or BSA protein ([…]) with PULSin reagents. One day later, the expression of APP and tubulin were examined simultaneously by Western Blot analyses. The identity of the proteins is as shown.
We suspected that the loop in the specific structure of ZIKV E protein was responsible for the potential interaction with APP (FIGS. 1A and 1B). A peptide (P2) derived from the potential binding site, the β-hairpin region, was synthesized with sequence optimization (FIG. 1C). Located in the core region of the ZIKV E protein and being hydrophobic, the eight amino acid stretch, EYRIMLSV, in the β-hairpin region of E protein was not included in the P2 sequence. Furthermore, the P2 peptide could potentially form a similar structure as in the native protein by including extra amino acids in the C-terminus (FIGS. 1B and 1C). […]

[2] = molecular target: T2, APP (Homo sapiens, UniProt P05067); assay: APP protein stability assay with cycloheximide (CHX) in HEK293 cells; format: cell-based; design: expressed in transfected cells; host or cells: HEK293; details: HEK293 co-transfected with APP plasmid plus P2 or BSA; CHX for one hour
Target sequence in this assay (P05067 18-695 isoform P05067-4 limits assumed): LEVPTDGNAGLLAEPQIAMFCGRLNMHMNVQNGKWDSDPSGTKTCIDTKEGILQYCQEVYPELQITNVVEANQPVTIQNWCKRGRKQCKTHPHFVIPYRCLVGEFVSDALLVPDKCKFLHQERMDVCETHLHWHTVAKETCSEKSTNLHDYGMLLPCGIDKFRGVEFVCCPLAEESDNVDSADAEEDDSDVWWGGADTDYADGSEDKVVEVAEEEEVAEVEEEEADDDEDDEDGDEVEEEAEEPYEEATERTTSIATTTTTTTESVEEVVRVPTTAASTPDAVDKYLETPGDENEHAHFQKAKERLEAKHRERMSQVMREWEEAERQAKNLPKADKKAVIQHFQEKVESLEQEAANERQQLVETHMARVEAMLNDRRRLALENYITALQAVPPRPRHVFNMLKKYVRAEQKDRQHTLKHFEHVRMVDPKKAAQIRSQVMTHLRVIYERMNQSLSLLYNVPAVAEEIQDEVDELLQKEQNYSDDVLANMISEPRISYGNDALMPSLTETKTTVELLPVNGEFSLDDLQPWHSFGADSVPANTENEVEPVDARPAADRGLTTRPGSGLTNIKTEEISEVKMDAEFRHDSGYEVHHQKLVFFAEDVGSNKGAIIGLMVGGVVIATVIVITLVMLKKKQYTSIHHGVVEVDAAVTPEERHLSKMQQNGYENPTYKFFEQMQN

[3] = Water solubility of the peptide; format: physicochemical
[4] = molecular target: T2, APP; assay: P2 effect on APP processing and amyloid formation (Western blot, immunofluorescence); format: cell-based
Target sequence in this assay (P05067 18-770, species assumed): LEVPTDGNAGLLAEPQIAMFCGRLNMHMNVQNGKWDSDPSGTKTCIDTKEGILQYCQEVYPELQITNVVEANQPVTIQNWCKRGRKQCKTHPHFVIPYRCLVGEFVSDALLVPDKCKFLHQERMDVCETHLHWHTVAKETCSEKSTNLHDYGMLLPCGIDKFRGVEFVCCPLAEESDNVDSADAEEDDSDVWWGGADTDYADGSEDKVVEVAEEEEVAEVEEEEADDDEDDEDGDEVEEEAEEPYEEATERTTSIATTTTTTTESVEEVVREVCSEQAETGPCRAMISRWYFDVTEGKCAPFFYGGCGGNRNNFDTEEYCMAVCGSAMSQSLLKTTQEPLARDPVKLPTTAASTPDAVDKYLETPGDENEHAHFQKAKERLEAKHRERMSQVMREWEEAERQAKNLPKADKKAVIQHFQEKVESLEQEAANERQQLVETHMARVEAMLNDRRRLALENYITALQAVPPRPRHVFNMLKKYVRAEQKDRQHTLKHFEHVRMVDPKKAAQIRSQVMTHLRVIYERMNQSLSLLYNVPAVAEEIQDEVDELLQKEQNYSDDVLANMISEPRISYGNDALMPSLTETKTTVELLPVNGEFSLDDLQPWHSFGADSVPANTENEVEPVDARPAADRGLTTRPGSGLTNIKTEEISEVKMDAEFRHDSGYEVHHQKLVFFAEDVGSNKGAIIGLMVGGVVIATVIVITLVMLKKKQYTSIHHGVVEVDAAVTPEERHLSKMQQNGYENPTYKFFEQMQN

[5] = molecular target: T2, APP; assay: APP expression in HEK293 cells with P2 peptide (Western blot); format: cell-based; design: expressed in transfected cells; host or cells: HEK293
Target sequence in this assay (P05067 18-695 isoform P05067-4 limits assumed): as the sequence (P05067 18-695 isoform P05067-4 limits assumed) above

T1 sequence (P03230 whole entry): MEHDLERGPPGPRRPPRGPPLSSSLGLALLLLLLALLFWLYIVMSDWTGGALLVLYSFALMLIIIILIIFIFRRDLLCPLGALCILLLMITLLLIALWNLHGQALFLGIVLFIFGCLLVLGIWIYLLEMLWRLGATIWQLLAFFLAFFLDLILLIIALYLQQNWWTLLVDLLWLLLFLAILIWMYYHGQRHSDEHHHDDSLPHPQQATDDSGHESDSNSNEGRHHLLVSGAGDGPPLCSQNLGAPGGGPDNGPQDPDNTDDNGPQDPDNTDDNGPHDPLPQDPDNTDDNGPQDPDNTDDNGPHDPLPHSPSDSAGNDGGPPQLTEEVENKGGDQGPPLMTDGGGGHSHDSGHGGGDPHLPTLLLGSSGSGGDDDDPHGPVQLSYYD

HGSQHSGMIVNDTGHETDENRAKVEITPNSPRAEATLGGFGSLGL (listed as Zika virus) [P2, peptide derived from the β-hairpin region of ZIKV E protein, without EYRIMLSV stretch]
LMP1 expression [1]: could not be enhanced | mechanism of APP enhancement (APP protein stability) [2]: a similar mechanism to ZIKV was established | water solubility [3]: water-soluble | APP metabolic processing ([4]; Example 4, FIG. 13): block APP metabolic processing | interaction with APP ([4]; Example 4, FIG. 13): interacts with APP | amyloid formation ([4]; Western blot (FIG. 13A) and immunofluorescence (FIG. 13B)): reduces amyloid formation | APP expression ([5]; HEK293 co-transfected with APP695 plasmid (0.5 μg) and P2 peptide (1 μg) with PULSin, compared with BSA control, one day later): could increase the expression of APP | APP expression ([5]; treating cells directly with peptide (data not shown)): could not enhance APP expression
